± gives the standard deviation of the averaged measurements.
Experiment: total protein half-life in vivo (active degradation + dilution); higher = more stable protein
[1] = E. coli NCM3722 delta-clpP, growth: N-lim chemostat, doubling time 6 h
[2] = E. coli NCM3722 delta-hslV, growth: N-lim chemostat, doubling time 6 h
[3] = E. coli NCM3722 delta-lon, growth: N-lim chemostat, doubling time 6 h
[4] = E. coli NCM3722 delta-smpB, growth: N-lim chemostat, doubling time 6 h
[5] = wild type E. coli NCM3722, growth: C-lim chemostat, doubling time 3 h
[6] = wild type E. coli NCM3722, growth: C-lim chemostat, doubling time 6 h
[7] = wild type E. coli NCM3722, growth: C-lim chemostat, doubling time 12 h
[8] = wild type E. coli NCM3722, growth: N-lim chemostat, doubling time 6 h
[9] = wild type E. coli NCM3722, growth: N-lim chemostat, doubling time 12 h
[10] = wild type E. coli NCM3722, growth: P-lim chemostat, doubling time 6 h
[11] = wild type E. coli NCM3722, growth: P-lim chemostat, doubling time 12 h
[12] = E. coli NCM3722 delta-clpP delta-lon delta-hslV, growth: N-lim chemostat, doubling time 6 h

Sequence | total protein half-life in vivo [1] | total protein half-life in vivo [2] | total protein half-life in vivo [3] | total protein half-life in vivo [4] | total protein half-life in vivo [5] | total protein half-life in vivo [6] | total protein half-life in vivo [7] | total protein half-life in vivo [8] | total protein half-life in vivo [9] | total protein half-life in vivo [10] | total protein half-life in vivo [11] | total protein half-life in vivo [12]
MAIERTFSIIKPNAVAKNVIGNIFARFEAAGFKIVGTKMLHLTVEQARGFYAEHDGKPFFDGLVEFMTSGPIVVSVLEGENAVQRHRDLLGATNPANALAGTLRADYADSLTENGTHGSDSVESAAREIAYFFGEGEVCPRTR [P0A763] | 3.93 ± 0.36 h | 3.85 ± 0.32 h | 4.39 ± 0.36 h | 3.92 ± 0.15 h | 3.09 ± 0.092 h | 5.64 ± 0.11 h | 9.324 ± 0.023 h | 3.88 ± 0.28 h | 6.19 ± 0.36 h | 5 ± 0.82 h | 10.6 ± 0.11 h | 
MTALNKKWLSGLVAGALMAVSVGTLAAEQKTLHIYNWSDYIAPDTVANFEKETGIKVVYDVFDSNEVLEGKLMAGSTGFDLVVPSASFLERQLTAGVFQPLDKSKLPEWKNLDPELLKLVAKHDPDNKFAMPYMWATTGIGYNVDKVKAVLGENAPVDSWDLILKPENLEKLKSCGVSFLDAPEEVFATVLNYLGKDPNSTKADDYTGPATDLLLKLRPNIRYFHSSQYINDLANGDICVAIGWAGDVWQASNRAKEAKNGVNVSFSIPKEGAMAFFDVFAMPADAKNKDEAYQFLNYLLRPDVVAHISDHVFYANANKAATPLVSAEVRENPGIYPPADVRAKLFTLKVQDPKIDRVRTRAWTKVKSGK | 6.13 ± 0.89 h | 6.35 ± 0.38 h | 7 ± 1.2 h | 5.81 ± 0.13 h | 2.94 ± 0.29 h | 6.34 ± 0.41 h | 13 ± 0.15 h | 6.215 ± 0.018 h | 12.89 ± 0.11 h | 6.46 ± 0.65 h | 13.7 ± 1.1 h | 4.64 ± 0.23 h
MLPFLKAPADAPLMTDKYEIDARYRYWRRHILLTIWLGYALFYFTRKSFNAAVPEILANGVLSRSDIGLLATLFYITYGVSKFVSGIVSDRSNARYFMGIGLIATGIINILFGFSTSLWAFAVLWVLNAFFQGWGSPVCARLLTAWYSRTERGGWWALWNTAHNVGGALIPIVMAAAALHYGWRAGMMIAGCMAIVVGIFLCWRLRDRPQALGLPAVGEWRHDALEIAQQQEGAGLTRKEILTKYVLLNPYIWLLSFCYVLVYVVRAAINDWGNLYMSETLGVDLVTANTAVTMFELGGFIGALVAGWGSDKLFNGNRGPMNLIFAAGILLSVGSLWLMPFASYVMQATCFFTIGFFVFGPQMLIGMAAAECSHKEAAGAATGFVGLFAYLGASLAGWPLAKVLDTWHWSGFFVVISIAAGISALLLLPFLNAQTPREA | 6.56 ± 0.2 h | 5.26 h | 5.43 ± 0.18 h | 6.52 ± 0.92 h | 2.81 h | 6.04 h | 10.4 h | 5.01 ± 2.2 h | > 16 h |  | 10.6 ± 1.1 h | 7.27 h
MRIGHGFDVHAFGGEGPIIIGGVRIPYEKGLLAHSDGDVALHALTDALLGAAALGDIGKLFPDTDPAFKGADSRELLREAWRRIQAKGYTLGNVDVTIIAQAPKMLPHIPQMRVFIAEDLGCHMDDVNVKATTTEKLGFTGRGEGIACEAVALLIKATK | 4.63 ± 0.57 h | 4.88 ± 0.23 h | 5 ± 0.85 h | 4.88 ± 0.38 h | 2.872 ± 0.01 h | 6.85 ± 1.3 h | 10.7 h | 4.9 ± 0.24 h | 8.67 ± 0.53 h | 5.806 ± 0.032 h | 12.9 ± 0.45 h | 5.75 ± 0.23 h
MNVFNPAQFRAQFPALQDAGVYLDSAATALKPEAVVEATQQFYSLSAGNVHRSQFAEAQRLTARYEAAREKVAQLLNAPDDKTIVWTRGTTESINMVAQCYARPRLQPGDEIIVSVAEHHANLVPWLMVAQQTGAKVVKLPLNAQRLPDVDLLPELITPRSRILALGQMSNVTGGCPDLARAITFAHSAGMVVMVDGAQGAVHFPADVQQLDIDFYAFSGHKLYGPTGIGVLYGKSELLEAMSPWLGGGKMVHEVSFDGFTTQSAPWKLEAGTPNVAGVIGLSAALEWLADYDINQAESWSRSLATLAEDALAKRPGFRSFRCQDSSLLAFDFAGVHHSDMVTLLAEYGIALRAGQHCAQPLLAELGVTGTLRASFAPYNTKSDVDALVNAVDRALELLVD | 3.13 ± 0.13 h | 3.71 ± 0.079 h | 4.38 ± 0.57 h | 3.52 ± 0.088 h | 2.97 ± 0.082 h | 5.59 ± 0.13 h | 10.8 ± 2.4 h | 4.11 ± 0.22 h | 6.8 ± 0.74 h | 5.86 ± 0.26 h | 13.3 ± 3.4 h | 4.06 ± 0.23 h
MSNFINIHVLISHSPSCLNRDDMNMQKDAIFGGKRRVRISSQSLKRAMRKSGYYAQNIGESSLRTIHLAQLRDVLRQKLGERFDQKIIDKTLALLSGKSVDEAEKISADAVTPWVVGEIAWFCEQVAKAEADNLDDKKLLKVLKEDIAAIRVNLQQGVDIALSGRMATSGMMTELGKVDGAMSIAHAITTHQVDSDIDWFTAVDDLQEQGSAHLGTQEFSSGVFYRYANINLAQLQENLGGASREQALEIATHVVHMLATEVPGAKQRTYAAFNPADMVMVNFSDMPLSMANAFEKAVKAKDGFLQPSIQAFNQYWDRVANGYGLNGAAAQFSLSDVDPITAQVKQMPTLEQLKSWVRNNGEA | 2.77 h |  | 2.71 h |  | 2.13 h | 4.22 h |  |  |  | 5.28 h | 11.4 ± 1.2 h | 6.17 ± 0.55 h
MHFRAITRIVGLLVILFSGTMIIPGLVALIYRDGAGRAFTQTFFVALAIGSMLWWPNRKEKGELKSREGFLIVVLFWTVLGSVGALPFIFSESPNLTITDAFFESFSGLTTTGATTLVGLDSLPHAILFYRQMLQWFGGMGIIVLAVAILPILGVGGMQLYRAEMPGPLKDNKMRPRIAETAKTLWLIYVLLTVACALALWFAGMDAFDAIGHSFATIAIGGFSTHDASIGYFDSPTINTIIAIFLLISGCNYGLHFSLLSGRSLKVYWRDPEFRMFIGVQFTLVVICTLVLWFHNVYSSALMTINQAFFQVVSMATTAGFTTDSIARWPLFLPVLLLCSAFIGGCAGSTGGGLKVIRILLLFKQGNRELKRLVHPNAVYSIKLGNRALPERILEAVWGFFSAYALVFIVSMLAIIATGVDDFSAFASVVATLNNLGPGLGVVADNFTSMNPVAKWILIANMLFGRLEVFTLLVLFTPTFWRE [P0AFZ7] | 6.5 h | 6.15 ± 0.27 h | 5.5 ± 1.2 h |  | 3.51 ± 0.23 h | 6.13 ± 0.096 h | 12.8 ± 1.7 h | 6.77 ± 0.85 h | 12.3 ± 0.14 h | 5.4 h | 11.4 ± 0.63 h | 7.11 h
